In patent publication US20030036166A1:

Columns and labels:
[1] = molecular target: T1, ErbB4.Fc (UniProt Q15303); assay: displacement of ^125I-NRG3^EGF.Fc (80 pM) from immobilized ErbB4.Fc by NRG1^EGF, 96-well plate, nonlinear regression
T1 sequence (looked up): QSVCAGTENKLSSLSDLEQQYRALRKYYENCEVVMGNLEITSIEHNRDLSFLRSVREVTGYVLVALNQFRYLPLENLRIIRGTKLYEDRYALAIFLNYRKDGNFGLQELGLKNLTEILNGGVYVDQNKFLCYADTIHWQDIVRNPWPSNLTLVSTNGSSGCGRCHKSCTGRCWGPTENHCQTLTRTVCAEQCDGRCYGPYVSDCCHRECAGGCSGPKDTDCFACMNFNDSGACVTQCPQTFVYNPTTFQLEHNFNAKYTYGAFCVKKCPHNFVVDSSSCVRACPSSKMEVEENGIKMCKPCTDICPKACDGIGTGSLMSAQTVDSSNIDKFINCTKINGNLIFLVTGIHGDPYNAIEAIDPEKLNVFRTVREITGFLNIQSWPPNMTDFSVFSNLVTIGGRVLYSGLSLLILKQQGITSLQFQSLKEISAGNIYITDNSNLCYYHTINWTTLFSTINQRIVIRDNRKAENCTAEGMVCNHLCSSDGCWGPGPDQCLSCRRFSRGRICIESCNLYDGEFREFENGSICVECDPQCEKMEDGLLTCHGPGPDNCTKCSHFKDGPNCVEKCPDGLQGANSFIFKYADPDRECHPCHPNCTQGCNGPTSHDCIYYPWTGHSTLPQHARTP

[2] = molecular target: T1, ErbB4.Fc; assay: displacement of ^125I-NRG3^EGF.Fc (80 pM) from immobilized ErbB4.Fc by unlabeled NRG3^EGF.Fc, 96-well plate, nonlinear regression

Sequence of NRG3^EGF.Fc (O35181 284-344 limits assumed): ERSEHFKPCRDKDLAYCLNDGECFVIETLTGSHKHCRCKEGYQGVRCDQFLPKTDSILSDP

| Substance | Ki [1] [nM] | Ki [2] [nM] |
| --- | --- | --- |
| NRG1^EGF (EGF-like domain of heregulin-β1, rHRGβ1 177-244) (from UniProt Q02297 177-244) (ligand) | 1 | – |
| NRG3^EGF.Fc (from UniProt O35181 284-344) (Fc fusion) | – | 9 |
